Results as given in patent publication US20240132603A1 (HARBOUR BIOMED US, published 2024).
Where two headings read alike, the source gives them in different places.

How the values were obtained:
human CCR8 [1] = target: T1, human CCR8 (human, UniProt P51685 1-355); assay: FACS, Baf3-hCCR8 cells
T1 construct: whole, on cells; construct used for the overexpressing cell lines is not described; also called hCCR8
Outline: (§1)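 CCR8-overexpressing cells were stained for 1 h at 4 °C with anti-CCR8 antibodies in a 5-fold series from 200 nM. After a 1:1000 secondary antibody for 40 min at 4 °C, binding was read by flow cytometry.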

human CCR8 [2] = target: T1, human CCR8; assay: cell-based or functional assay
human CCR8 [3] = target: T1, human CCR8; assay: FACS, CHO-K1-hCCR8 cells
Outline: as §1

human CCR8 [4] = target: T1, human CCR8; assay: FACS, HEK293-hCCR8 cells
Outline: as §1

human CCR8 [5] = target: T1, human CCR8; assay: FACS, HEK293-hCCR8 cells; remark: listed apart in the source
Description: (§2) Cells overexpressing human CCR8 were digested with pancreatin, counted and resuspended to a cell density of 1E6 cells/mL. The cell suspension was added to a 96-well V-bottom plate at 100 μL/well and centrifuged at 300 g for 5 min, and the supernatant was discarded. The anti-CCR8 antibodies provided herein was used as a primary antibody and diluted in a 5-fold gradient with an FACS buffer (DPBS containing 2% FBS) from 200 nM. The diluted primary antibody was added at 100 μL/well to resuspend the cells, and the mixture was incubated at 4° C. for 1 h. The plate was washed twice with DPBS and centrifuged at 300×g for 5 min, and the supernatant was discarded. The secondary antibody diluted in a 1:1000 ratio with an FACS buffer was added at 100 μL/well to suspend the cells, and the mixture was incubated at 4° C. for 40 min. The plate was washed twice with DPBS and centrifuged at 300×g for 5 min, and the supernatant was discarded. DPBS was added at 200 μL/well to suspend the cells, and the mixture was loaded on an FACS machine for analysis.

cynomolgus monkey CCR8 [6] = target: T2, cynomolgus monkey CCR8 (cynomolgus monkey, UniProt G7NYJ2 1-355); assay: FACS, CHO-K1-CynoCCR8 cells
T2 construct: whole, on cells; also called CynoCCR8
Outline: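 Anti-CCR8 antibodies titrated in 5-fold steps from 200 nM onto 1E6 cells/mL CHO-K1-CynoCCR8 in DPBS/2% FBS, 1 h at 4 °C. Bound antibody detected with 1:1000 secondary antibody, 40 min at 4 °C, then flow cytometry.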

cynomolgus monkey CCR8 [7] = target: T2, cynomolgus monkey CCR8; assay: FACS, CHO-K1-CynoCCR8 cells; remark: listed apart in the source
Description: as §2, with “cynomolgus monkey CCR8, CHO-K1-CynoCCR8,” for “human CCR8”

human CCR8 [8] = target: T1, human CCR8; assay: FACS on HEK293 cells overexpressing human CCR8
Description: as §2

human CCR8 [9] = target: T1, human CCR8; assay: FACS competition on HEK293-hCCR8 cells against a biotin-labelled anti-CCR8 antibody at its EC80; the labelled antibody of this panel is not named on the sheet
Description: (§3) The antibody was conjugated with Sulfo-NHS-LC-Biotin at a molar ratio of 5:1 (1 mol antibody was added to 5 mol Sulfo-NHS-LC-Biotin) with reference to the product instructions (ThermoFisher, Cat No. A39257) and incubated on ice for 2 h. The coupled antibody was purified with a Zeba desalting column (ThermoFisher, Cat No. 89882). Cells overexpressing human CCR8, HEK293-hCCR8, were added to a V-bottom 96-well plate at a density of 1E5 cells/well and centrifuged at 300 g for 5 min, and the supernatant was discarded. The competitive antibody was serially diluted in a ratio of 1:10 from 200 nM to obtain 8 concentration points. The Biotin-antibody and the competition antibody were mixed in a 1:1 ratio on an HEK293 cell line overexpressing human CCR8 by the binding EC₈₀ concentration. The cells in the 96-well plate were resuspended and incubated at 4° C. for 1 h. The plate was washed twice with DPBS at 200 μL/well. The secondary antibody diluted in a 1:1000 ratio was added at 100 μL/well, and the mixture was incubated at 4° C. for 40 min. The plate was washed twice with DPBS at 200 μL/well. Finally, DPBS was […] at 200 μL/well to suspend the cells, and the mixture was loaded on an FACS machine for analysis.

human CCR8 [10] = target: T1, human CCR8; assay: as above; remark: listed apart in the source
Description: as §3

human CCR8 [11] = target: T1, human CCR8; assay: as above; remark: listed apart in the source
Description: as §3

human CCR8 [12] = target: T1, human CCR8; assay: as above; remark: listed apart in the source
Description: as §3

human CCR8 [13] = target: T1, human CCR8; assay: as above; remark: listed apart in the source
Description: as §3

T1 sequence (P51685 whole entry): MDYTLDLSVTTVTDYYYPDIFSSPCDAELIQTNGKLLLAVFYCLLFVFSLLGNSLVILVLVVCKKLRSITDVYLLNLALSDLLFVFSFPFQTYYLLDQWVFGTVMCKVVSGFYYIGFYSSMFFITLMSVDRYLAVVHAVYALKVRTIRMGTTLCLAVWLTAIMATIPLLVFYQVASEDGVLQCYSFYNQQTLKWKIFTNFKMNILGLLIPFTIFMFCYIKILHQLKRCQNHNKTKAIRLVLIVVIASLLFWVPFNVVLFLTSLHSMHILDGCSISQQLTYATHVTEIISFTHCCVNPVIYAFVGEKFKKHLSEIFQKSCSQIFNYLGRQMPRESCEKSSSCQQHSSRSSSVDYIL
T2 sequence (G7NYJ2 entry or part of it): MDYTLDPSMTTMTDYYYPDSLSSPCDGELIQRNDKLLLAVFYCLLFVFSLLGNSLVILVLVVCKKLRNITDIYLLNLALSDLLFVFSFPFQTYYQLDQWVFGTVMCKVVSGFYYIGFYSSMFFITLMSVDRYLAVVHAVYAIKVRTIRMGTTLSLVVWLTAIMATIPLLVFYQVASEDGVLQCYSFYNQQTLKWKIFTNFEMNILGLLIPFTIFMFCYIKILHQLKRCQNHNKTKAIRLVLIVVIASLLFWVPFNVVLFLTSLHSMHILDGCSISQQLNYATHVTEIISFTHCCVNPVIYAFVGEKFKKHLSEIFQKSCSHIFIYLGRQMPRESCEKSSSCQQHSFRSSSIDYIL

EC50 (human CCR8 [1]): 0.17 nM
Bottom %, blocking of CCL1-stimulated calcium flux (human CCR8 [2]): 12%
IC50(nM), blocking of CCL1-stimulated calcium flux (human CCR8 [2]): 1.47 nM
EC50 (human CCR8 [3]): 0.5 nM
EC50 (human CCR8 [4]): 0.66 nM
EC50 (human CCR8 [5]): 0.99 nM
EC50 (cynomolgus monkey CCR8 [6]): 1.06 nM
EC50 (cynomolgus monkey CCR8 [7]): 2.83 nM
EC50 (read off the curve) (human CCR8 [8]): ~1 nM
IC50 (read off the curve) (human CCR8 [9]): ~3 nM
IC50 (read off the curve) (human CCR8 [10]): ~2 nM
IC50 (read off the curve) (human CCR8 [11]): ~2 nM
IC50 (read off the curve) (human CCR8 [12]): ~2 nM
IC50 (read off the curve) (human CCR8 [13]): 1 to 2 nM
B1: PR004122 (antibody, human IgG1, kappa)
heavy: not shown
light: DIVMTQAAPSVPVTPGESVSISCRSSKSLLHSNGNTYLYWFLQRPGQSPQLLIYRMSNLASGVPDRFSGSGSGTAFTLRISRVEAEDVGVYYCMQHLEYPLTFGAGTKLELKRTVAAPSVFIFPPSDEQLKSGTASVVCLLNNFYPREAKVQWKVDNALQSGNSQESVTEQDSKDSTYSLSSTLTLSKADYEKHKVYACEVTHQGLSSPVTKSFNRGEC
notes: chimeric, human IgG1 constant region
